The target in this experiment is T1, purified full-length human AR (Abcam ab82609) (human, UniProt P10275 1-920).
T1 construct: androgen receptor, human, full length; also called Purified AR; AR polypeptide (ligand)
T1 sequence (looked up): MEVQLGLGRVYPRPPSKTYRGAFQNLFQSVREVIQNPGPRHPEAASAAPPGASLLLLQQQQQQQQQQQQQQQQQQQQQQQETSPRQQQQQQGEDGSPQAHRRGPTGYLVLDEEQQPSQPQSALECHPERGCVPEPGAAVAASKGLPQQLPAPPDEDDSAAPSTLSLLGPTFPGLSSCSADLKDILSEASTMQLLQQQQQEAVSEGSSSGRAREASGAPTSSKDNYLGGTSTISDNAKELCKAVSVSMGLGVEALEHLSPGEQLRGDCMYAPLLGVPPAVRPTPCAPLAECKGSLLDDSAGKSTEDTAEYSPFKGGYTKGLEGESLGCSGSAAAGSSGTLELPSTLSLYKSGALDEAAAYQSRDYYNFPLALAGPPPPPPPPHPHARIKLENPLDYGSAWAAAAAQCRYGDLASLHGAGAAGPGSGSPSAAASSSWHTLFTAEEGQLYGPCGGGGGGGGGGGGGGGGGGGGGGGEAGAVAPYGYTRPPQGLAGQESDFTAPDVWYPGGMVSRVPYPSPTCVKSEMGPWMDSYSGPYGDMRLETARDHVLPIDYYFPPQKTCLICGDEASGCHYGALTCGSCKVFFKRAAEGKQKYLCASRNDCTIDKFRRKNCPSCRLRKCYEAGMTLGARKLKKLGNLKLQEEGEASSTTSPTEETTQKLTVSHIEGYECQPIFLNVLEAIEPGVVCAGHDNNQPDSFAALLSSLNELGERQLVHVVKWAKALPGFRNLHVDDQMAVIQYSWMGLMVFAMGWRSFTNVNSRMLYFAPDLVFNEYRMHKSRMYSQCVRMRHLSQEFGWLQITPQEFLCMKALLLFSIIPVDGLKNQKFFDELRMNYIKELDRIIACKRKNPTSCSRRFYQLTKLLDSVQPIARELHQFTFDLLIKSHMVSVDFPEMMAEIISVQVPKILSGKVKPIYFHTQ
Nature of the experiment: SPR; BIAcore 3000; AR immobilised on a CM5 chip by amine coupling; His-ELK1 (0-160 nM) or mutant ELK1 (100 nM) as analyte; HBS-N buffer; 1:1 Langmuir model; Kd = koff/kon. The following applies: both partners purified. For orientation: In SPR one partner is held on a chip, and binding of the other changes the refractive index at the surface.

What is called Kd is a measure of binding affinity in units of concentration.

B1: His-tagged ELK1 (natural protein, human, UniProt P19419 1-428, looked up)
chain: MDPSVTLWQFLLQLLREQGNGHIISWTSRDGGEFKLVDAEEVARLWGLRKNKTNMNYDKLSRALRYYYDKNIIRKVSGQKFVYKFVSYPEVAGCSTEDCPPQPEVSVTSTMPNVAPAAIHAAPGDTVSGKPGTPKGAGMAGPGGLARSSRNEYMRSGLYSTFTIQSLQPQPPPHPRPAVVLPSAAPAGAAAPPSGSRSTSPSPLEACLEAEEAGLPLQVILTPPEAPNLKSEELNVEPGLGRALPPEVKVEGPKEELEVAGERGFVPETTKAEPEVPPQEGVPARLPAVVMDTAGQAGGHAASSPEISQPQKGRKPRDLELPLSPSLLGGPGPERTPGSGSGSGLQAPGPALTPSLLPTHTLTPVLLTPSSLPPSIHFWSTLSPIAPRSPAKLSFQFPSSGSAQVHIPSISVDGLSTPVVLSPGPQKP
notes: ELK1, recombinant; Construct details are in the supplemental material; also called purified ELK1
With B1, the affinity, expressed as Kd, was 19 nM.

Source of the values: publication PMC5207070, “The Amino-terminal Domain of the Androgen Receptor Co-opts Extracellular Signal-regulated Kinase (ERK) Docking Sites in ELK1 Protein to Induce Sustained Gene Activation That Supports Prostate Cancer Cell Growth*^([image sbox.jpg])” (The Journal of Biological Chemistry, 2016).
